Drawing on publication PMC2536506, this text covers percent reduction of binding against wild-type GST-TDRD3-Tdr for two substances.

In this assay the target is GST-TDRD3-Tdr E691K (human). The experiment in a line: pull-down.

Turning to “DEAD/H box-3 (from UniProt O00571-1 1-662) (natural protein)”, the percent reduction of binding against wild-type GST-TDRD3-Tdr is 50%.

The substance “Eukaryotic translation elongation factor 1 alpha 1 (from UniProt P68104 1-462) (natural protein)” came in with a percent reduction of binding against wild-type GST-TDRD3-Tdr of 90%.
